The results in this text go back to paper PMC11853100.

The target in the assay is Streptococcus pneumoniae pneumolysin, recombinant (Streptococcus pneumoniae strain R6) (UniProt Q04IN8). The assay is described as follows: ITC; chaperone in the syringe, Ply in the sample cell; 20 mM MES, 100 mM NaCl, 1 mM beta-mercaptoethanol, 10% glycerol, pH 6.5, 25 C; independent binding model.

Broadly, the stoichiometry N is a count of units in the complex or per binding partner. Regarding “Streptococcus pneumoniae SlrA (from UniProt Q8DQG5 19-267) (enzyme)”, the dH is -35.6 kcal/mol and the stoichiometry N came out at 0.84.
